Test system: small intestinal immune cells
Test: Droplet-based scRNA-seq of small intestinal immune cells (LP and PP), OVA vs PBS, clustering and differential expression
Type: in vivo, mouse
Details: for percentage of expressing cells in OVA-treated group / LN (average fold change): cluster ID 12, LP
Text: To comprehensively characterize small intestinal immune cells, Applicants generated scRNA-Seq profiles for 58,067 immune cells collected from lamina propria (LP) and Peyer's patch (PP) regions at steady state and after induction of a type 2 inflammatory reaction to ovalbumin (OVA) (Brandt et al., 2003) (FIGS. 1A and 8A). To ensure sufficient representation of rare cells, Applicants combined a normalization strategy—removing by flow sorting either a portion of IgD+ naïve B cells, which are the most abundant cell type in PPs, or all CD19+ and CD3+ T cells (FIG. 8B, Methods)—with profiling of a sufficiently large number of cells number (P>0.99 to recover at least 15 cells from each cluster, Methods) by massively parallel scRNA-seq (Haber et al., 2017) (Methods). Applicants obtained 36,797 and 21,270 high quality cells passing initial filtering (Methods) from PP and LP regions, respectively.
Overall, Applicants annotated 27 cell subsets across the two compartments, spanning T cells, B cells, ILCs, dendritic cells (DCs), myeloid cells and stromal cells, in frequencies ranging from 0.07% to 14%. Briefly, Applicants first partitioned the cells from the PP regions by unsupervised clustering (Methods) into 46 clusters, retained the 97% of cells that were robustly assigned cell identities in each cluster (Methods), assigned the cells from the LP regions to the 46 clusters using a classifier (Methods), and visualized the data with scvis (Ding et al., 2018), a deep generative model-based method (FIGS. 1B and 8C, Methods). Next, Applicants identified genes that were differentially expressed between the cells in each cluster and the remaining cells (Table 1, Methods), as well as between pairs of clusters (Table 2), to elucidate identities of similar cell types/states. Applicants excluded from downstream analysis clusters mostly consisting of contaminants from epithelium, likely doublets, or cells with a small number of Unique Molecular Identifiers (UMIs) (FIGS. 1C and 8D), or lacking distinct markers (Methods). Altogether, Applicants retained 27 clusters spanning 85% of the cells and each associated with distinct marker genes (FIG. 8E, Methods).
To induce allergic reaction to OVA, 6 to 7 weeks old mice were sensitized twice, two weeks apart, with 50 μg of OVA plus 1 mg of aluminum potassium sulfate adjuvant via intraperitoneal injection. Two weeks later, mice were orally administered with 50 mg of OVA on every other day for a total of five times. 1 μg of α-CGRP peptide was administered simultaneously when indicated. Mice were deprived of food for 3-4 hours in cages with wood chip bedding for limiting antigen degradation in the stomach before each intragastric challenge.
Isolation of cells from Peyer's patches (PPs). Peyer's patches (PPs) were carefully dissected from the small intestine under a stereo microscope using a fine scissor, pierced once with a fine forcep. Tissues were digested in freshly made digestion buffer (RPMI-1640 containing 100 μg/ml Liberase™ and 50 μg/ml DNase I at 37° C. on a roto-mixer. After 15 min, tissues were very gently mixed using a 1 ml pipette. The supernatant was collected and added to ice-cold MACS buffer (pH 7.4; PBS plus 2% FCS and 2 mM EDTA). Pre-warmed (37° C.) fresh digestion buffer was added to the remaining tissues. After rotation at 37° C. for 15 min, the mixture was vigorously mixed using a 1 ml pipette for 1 min. Supernatants from the two steps were combined and passed through 70 μm filters and stained for FACS (below).
Isolation of cells from the lamina propria (LP). The small intestines were opened longitudinally and washed in ice-cold PBS. For scRNA-seq, roughly 0.5 cm of fragments from each of the distal, middle and proximal regions without visible PPs were collected. Epithelial cells were dissociated by tissue rotation in pre-warmed (37° C.) PBS containing 10 mM EDTA at 37° C. for 15 min, followed by additional incubation on ice for 15 min. Tissues were then shaken vigorously. […]

B1: OVA (protein, UniProt P01012 2-386, looked up)
Ovalbumin: GSIGAASMEFCFDVFKELKVHHANENIFYCPIAIMSALAMVYLGAKDSTRTQINKVVRFDKLPGFGDSIEAQCGTSVNVHSSLRDILNQITKPNDVYSFSLASRLYAEERYPILPEYLQCVKELYRGGLEPINFQTAADQARELINSWVESQTNGIIRNVLQPSSVDSQTAMVLVNAIVFKGLWEKAFKDEDTQAMPFRVTEQESKPVQMMYQIGLFRVASMASEKMKILELPFASGTMSMLVLLPDEVSGLEQLESIINFEKLTEWTSSNVMEERKIKVYLPRMKMEEKYNLTSVLMAMGITDVFSSSANLSGISSAESLKISQAVHAAHAEINEAGREVVGSAEAGVDAASVSEEFRADHPFLFCIKHIATNAVLFFGRCVSP
B1 was tested, and the “Rilpl2: LN (average fold change)” value (cluster ID 6, PP, OVA vs PBS) was −0.158, the “Rnase6: LN (average fold change)” value (cluster ID 6, PP, OVA vs PBS) was 0.160 and the “Rnf19b: LN (average fold change)” value (cluster ID 6, PP, OVA vs PBS) was −0.314. The “Rpn2: LN (average fold change)” value (cluster ID 6, PP, OVA vs PBS) was 0.272, the “Runx3: LN (average fold change)” value (cluster ID 6, PP, OVA vs PBS) was −0.200 and the “S1pr4: LN (average fold change)” value (cluster ID 6, PP, OVA vs PBS) was 0.331. For the same molecule, the “Sell: LN (average fold change)” value (cluster ID 6, PP, OVA vs PBS) was 0.172, the “Selplg: LN (average fold change)” value (cluster ID 6, PP, OVA vs PBS) was 0.183 and the “Sf3b1: LN (average fold change)” value (cluster ID 6, PP, OVA vs PBS) was 0.237. The “Siah2: LN (average fold change)” value (cluster ID 6, PP, OVA vs PBS) was −0.303, the “Skil: LN (average fold change)” value (cluster ID 6, PP, OVA vs PBS) was −0.246 and the “Sla2: LN (average fold change)” value (cluster ID 6, PP, OVA vs PBS) was 0.243. The “Smc6: LN (average fold change)” value (cluster ID 6, PP, OVA vs PBS) was −0.180, the “Socs3: LN (average fold change)” value (cluster ID 6, PP, OVA vs PBS) was 0.385 and the “Spsb2: LN (average fold change)” value (cluster ID 6, PP, OVA vs PBS) was −0.508. For the same molecule, the “Tgif1: LN (average fold change)” value (cluster ID 6, PP, OVA vs PBS) was −0.548, the “Tnfaip8l2: LN (average fold change)” value (cluster ID 6, PP, OVA vs PBS) was 0.307 and the “Traf4: LN (average fold change)” value (cluster ID 6, PP, OVA vs PBS) was −0.199. For the same molecule, the “Trim25: LN (average fold change)” value (cluster ID 6, PP, OVA vs PBS) was −0.239, the “VgIl4: LN (average fold change)” value (cluster ID 6, PP, OVA vs PBS) was −0.419 and the “Vps37b: LN (average fold change)” value (cluster ID 6, PP, OVA vs PBS) was −0.292. The “Wnk1: LN (average fold change)” value (cluster ID 6, PP, OVA vs PBS) was −0.262, the “Zc3h12a: LN (average fold change)” value (cluster ID 6, PP, OVA vs PBS) was −0.495 and the “Zfand5: LN (average fold change)” value (cluster ID 6, PP, OVA vs PBS) was −0.220. For the same molecule, the “Zfp36l2: LN (average fold change)” value (cluster ID 6, PP, OVA vs PBS) was 0.365, the “percentage of expressing cells in OVA-treated group” value (“percentage of expressing cells” for short) (gene Abhd17c) was 0.52 and the “LN (average fold change)” value (gene Abhd17c, OVA vs PBS) was 0.599. For the same molecule, the “percentage of expressing cells” value (gene Arf6) was 0.429, the “LN (average fold change)” value (gene Arf6, OVA vs PBS) was 0.610 and the “percentage of expressing cells” value (gene Arl4a) was 0.256. The “LN (average fold change)” value (gene Arl4a, OVA vs PBS) was 0.781, the “percentage of expressing cells” value (gene Arl5c) was 0.04 and the “LN (average fold change)” value (gene Arl5c, OVA vs PBS) was −1.873. For the same molecule, the “percentage of expressing cells” value (gene Arpc2) was 0.769, the “LN (average fold change)” value (gene Arpc2, OVA vs PBS) was 0.318 and the “percentage of expressing cells” value (gene BC031181) was 0.365. The “LN (average fold change)” value (gene BC031181, OVA vs PBS) was −0.512, the “percentage of expressing cells” value (gene Cbarp) was 0.193 and the “LN (average fold change)” value (gene Cbarp, OVA vs PBS) was 0.886. The “percentage of expressing cells” value (gene Ccl1) was 0.203, the “LN (average fold change)” value (gene Ccl1, OVA vs PBS) was 1.335 and the “percentage of expressing cells” value (gene Ccrl2) was 0.192. The “LN (average fold change)” value (gene Ccrl2, OVA vs PBS) was −0.742, the “percentage of expressing cells” value (gene Cd52) was 0.581 and the “LN (average fold change)” value (gene Cd52, OVA vs PBS) was 0.644. For the same molecule, the “percentage of expressing cells” value (gene Cited2) was 0.176, the “LN (average fold change)” value (gene Cited2, OVA vs PBS) was −0.724 and the “percentage of expressing cells” value (gene Cntnap2) was 0.074. For the same molecule, the “LN (average fold change)” value (gene Cntnap2, OVA vs PBS) was −1.008, the “percentage of expressing cells” value (gene Coq10b) was 0.332 and the “LN (average fold change)” value (gene Coq10b, OVA vs PBS) was −0.690. The “percentage of expressing cells” value (gene Cox8a) was 0.798, the “LN (average fold change)” value (gene Cox8a, OVA vs PBS) was 0.285 and the “percentage of expressing cells” value (gene Cwc25) was 0.061. The “LN (average fold change)” value (gene Cwc25, OVA vs PBS) was −1.439, the “percentage of expressing cells” value (gene Cycs) was 0.531 and the “LN (average fold change)” value (gene Cycs, OVA vs PBS) was 0.561. For the same molecule, the “percentage of expressing cells” value (gene Ddx5) was 0.886, the “LN (average fold change)” value (gene Ddx5, OVA vs PBS) was −0.276 and the “percentage of expressing cells” value (gene Dtx1) was 0.05. The “LN (average fold change)” value (gene Dtx1, OVA vs PBS) was −1.600, the “percentage of expressing cells” value (gene Eef1a1) was 0.997 and the “LN (average fold change)” value (gene Eef1a1, OVA vs PBS) was 0.236. For the same molecule, the “percentage of expressing cells” value (gene Eef1b2) was 0.709, the “LN (average fold change)” value (gene Eef1b2, OVA vs PBS) was 0.395 and the “percentage of expressing cells” value (gene Eef2) was 0.927. For the same molecule, the “LN (average fold change)” value (gene Eef2, OVA vs PBS) was 0.240, the “percentage of expressing cells” value (gene Eif1) was 0.996 and the “LN (average fold change)” value (gene Eif1, OVA vs PBS) was 0.152. The “percentage of expressing cells” value (gene Eif3e) was 0.67, the “LN (average fold change)” value (gene Eif3e, OVA vs PBS) was 0.416 and the “percentage of expressing cells” value (gene Eif3h) was 0.686. For the same molecule, the “LN (average fold change)” value (gene Eif3h, OVA vs PBS) was 0.298, the “percentage of expressing cells” value (gene Emd) was 0.235 and the “LN (average fold change)” value (gene Emd, OVA vs PBS) was −0.729.
